# B1: DHHC-20 (enzyme, human (endogenous in HEK 293 T), UniProt Q5W0Z9 1-365, looked up)
# chain: MAPWTLWRCCQRVVGWVPVLFITFVVVWSYYAYVVELCVFTIFGNEENGKTVVYLVAFHLFFVMFVWSYWMTIFTSPASPSKEFYLSNSEKERYEKEFSQERQQEILRRAARALPIYTTSASKTIRYCEKCQLIKPDRAHHCSACDSCILKMDHHCPWVNNCVGFSNYKFFLLFLLYSLLYCLFVAATVLEYFIKFWTNELTDTRAKFHVLFLFFVSAMFFISVLSLFSYHCWLVGKNRTTIESFRAPTFSYGPDGNGFSLGCSKNWRQVFGDEKKYWLLPIFSSLGDGCSFPTRLVGMDPEQASVTNQNEYARSSGSNQPFPIKPLSESKNRLLDSESQWLENGAEEGIVKSGTNNHVTVAIEN
# notes: S-acyl transferase DHHC-20, detected with anti-DHHC-20 (Sigma SAB 4501054); also called S-acyl transferase DHHC-20; source: endogenous, HEK 293 T lysate
# Target: T1, GST-CypA (UniProt P62937 1-165)
# T1 construct: cyclophilin A fused to GST; source: E. coli BL21, purified on glutathione-agarose
# Experiment: pull-down; GST proteins (GST, GST-CypA, GST-FKBP12) on glutathione sepharose (10 µl) added to HEK 293 T lysate (50 µl diluted to 500 µL with lysis buffer) of cells transfected with an empty (pCi) or Tat vector; 1 h at 4 °C; three washes with lysis buffer; western blots
# Details: one partner purified
# T1 sequence (P62937 whole entry, the tested form may be a part): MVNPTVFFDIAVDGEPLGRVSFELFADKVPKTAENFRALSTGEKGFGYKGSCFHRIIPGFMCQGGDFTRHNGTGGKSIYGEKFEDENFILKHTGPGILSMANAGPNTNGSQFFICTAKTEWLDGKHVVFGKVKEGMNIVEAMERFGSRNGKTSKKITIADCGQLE
binder,measurement,value
B1,fold more pulled down from extracts of Tat-transfected cells against empty-vector cells,~4 fold

# Source: PMC5993824 (Nature Communications, 2018)
